Here are results for one molecule from patent US20240400640A1 (published 2024).

This test has as its target IL-21-Fc. The test is described as follows: SPR. (In general: SPR reads the build-up and loss of mass on a sensor chip optically.)

B1: hIL-21 receptor (receptor)
chain: not shown
For orientation: Kd means a measure of binding affinity in units of concentration. A low value points to tighter binding. Turning to B1, the affinity, expressed as Kd, was 1.68 pM.
